Columns and labels:
[1] = tested on: CsnR (ROK-family transcriptional repressor, SSPG_04872) (Streptomyces lividans TK24); assay: competition
[2] = tested on: CsnR (ROK-family transcriptional repressor, SSPG_04872) (Streptomyces lividans TK24); assay: EMSA; conditions: 10 mM HEPES pH 7.9, 150 mM KCl, 10% glycerol, poly(dI-dC), room temperature

## CCTCTTCTGGTAGGAAACTGTCCGATCAGT (double strand) [csnA-MM]
[1]; competitor vs labeled csnA-WT, +2 and +6 mutations, lost most affinity, SE logIC50 0.33
  IC50: 105 nM

## CCTCTTCTGGTAGGAAACTGTCCTATCAGT (double strand) [csnA-M1]
[1]; competitor vs labeled csnA-WT, +2 mutation, SE logIC50 0.13
  IC50: 52.1 nM

## CCTCTTCTGGTAGGAAACTTTCCGATCAGT (double strand) [csnA-M2]
[1]; competitor vs labeled csnA-WT, +6 mutation, SE logIC50 0.08
  IC50: 2.7 nM

## CCTCTTCTGGTAGGAAACTTTCCTATCAGT (double strand) [csnA-WT]
[2]; SE 0.009 nM
  Kd: 0.032 nM
[1]; unlabeled competitor vs 0.03 nM labeled csnA-WT, SE logIC50 0.11
  IC50: 1.3 nM

## CTCCAGCCAACAGGAAACTTTCCTAACAGA (double strand) [csnR-WT]
[2]; SE 0.008 nM
  Kd: 0.04 nM
